In the RNAGym collection of RNA variant scans (doi:10.7554/elife.90254):

B1: LINE1-mini (parent)
chain: GGCAGAGCUCAACACAGCGUGGCAAAGUGGCUGUGGCUAGACUGCC

Variants of: B1
Assay: self-cleavage, relative activity (ratio to wild type); higher = more cleavage; in vitro, sequencing; the parent is a self-cleaving ribozyme

| Variant | self-cleavage |
| --- | --- |
| C23U G27A | 1.07 |
| C23U G27U | 0.87 |
| C23U G27C | 0.73 |
| A24U A41U | 0.61 |
| A24U A41G | 0.52 |
| A24U A41C | 0.07 |
| A24U G33A | 0.05 |
| A24U G33U | 0.08 |
| A24U G33C | 0.06 |
| C23U C46G | 1.58 |
| C23U C46A | 1.4 |
| C23U C46U | 1.39 |
| A24C G27C | 0.77 |
| A24C G27U | 0.55 |
| A24C G27A | 0.77 |
| A25C A26C | 1.13 |
| A25C A26U | 0.68 |
| C23U A41G | 0.51 |
| C23U A41U | 0.57 |
| C23U A41C | 0.06 |
| A25C G30U | 1.11 |
| A25C G30A | 0.44 |
| A25C G30C | 1.64 |
| A25C G35A | 0.11 |

| Variant | self-cleavage |
| --- | --- |
| A25C G35U | 0.12 |
| A25C G35C | 0.1 |
| A24U G44U | 0.19 |
| A24U G44C | 0.67 |
| A24U G44A | 0.44 |
| A24G G36C | 0.11 |
| A24G G36U | 0.1 |
| A24G G36A | 0.17 |
| A25C G36C | 0.07 |
| A25C G36U | 0.11 |
| A25C G36A | 0.21 |
| C23U U43A | 0.07 |
| C23U U43C | 0.43 |
| C23U U43G | 0.03 |
| A24G U34A | 0.09 |
| A24G U34C | 0.1 |
| A24G U34G | 0.14 |
| C23U U34G | 0.3 |
| C23U U34A | 0.28 |
| C23U U34C | 0.62 |
| A24G G33A | 0.07 |
| A24G G33C | 0.06 |
| A24G G33U | 0.08 |
| A24C A39C | 1.1 |

| Variant | self-cleavage |
| --- | --- |
| A24C A39G | 0.07 |
| A24C A39U | 0.25 |
| A25C U34G | 0.06 |
| A25C U34A | 0.12 |
| A25C U34C | 0.08 |
| A24G U32A | 0.14 |
| A24G U32C | 0.24 |
| A24G U32G | 0.14 |
| A24C G33U | 0.04 |
| A24C G33C | 0.04 |
| A24C G33A | 0.06 |
| A24G U28A | 0.94 |
| A24G U28C | 0.72 |
| A24G U28G | 0.45 |
| A25C C42A | 0.11 |
| A25C C42U | 0.41 |
| A25C C42G | 0.04 |
| A25C G29A | 0.75 |
| A25C G29C | 0.56 |
| A25C G29U | 1.19 |
| A24U U38A | 0.34 |
| A24U U38C | 1.36 |
| A24U U38G | 0.02 |
| A25C C37A | 0.11 |

| Variant | self-cleavage |
| --- | --- |
| A25C C37G | 0.06 |
| A25C C37U | 0.06 |
| A24C U43A | 0.02 |
| A24C U43C | 0.1 |
| A24C U43G | 0.37 |
| A25C G44A | 0.42 |
| A25C G44U | 0.16 |
| A25C G44C | 0.23 |
| A25G A26U | 0.1 |
| A25G A26G | 0.34 |
| A25G A26C | 0.49 |
| A25C G33A | 0.05 |
| A25C G33U | 0.15 |
| A25C G33C | 0.04 |
| A24G G30C | 1.12 |
| A24G G30U | 2.49 |
| A24G G30A | 1.11 |
| A24G U38G | 0.03 |
| A24G U38C | 0.71 |
| A24G U38A | 0.76 |
| A24C U32G | 0.13 |
| A24C U32C | 0.05 |
| A24C U32A | 0.08 |
| A24U C46G | 1.03 |

| Variant | self-cleavage |
| --- | --- |
| A24U C46U | 1.09 |
| A24U C46A | 2.01 |
| A24C G30A | 0.71 |
| A24C G30C | 0.49 |
| A24C G30U | 0.79 |
| A24G G27U | 0.57 |
| A24G G27A | 0.98 |
| A24G G27C | 0.9 |
| A25G A41U | 0.19 |
| A25G A41G | 0.26 |
| A25G A41C | 0.04 |
| A24C C46G | 0.27 |
| A24C C46U | 0.64 |
| A24C C46A | 0.32 |
| A25C C45G | 0.11 |
| A25C C45A | 0.23 |
| A25C C45U | 0.49 |
| C23U G33A | 0.15 |
| C23U G33U | 0.16 |
| C23U G33C | 0.05 |
| A24C G40C | 0.05 |
| A24C G40U | 0.11 |
| A24C G40A | 0.07 |
| A24C G36C | 0.1 |

| Variant | self-cleavage |
| --- | --- |
| A24C G36A | 0.48 |
| A24C G36U | 0.1 |
| A25C U28G | 0.65 |
| A25C U28C | 0.44 |
| A25C U28A | 1.37 |
| A25C C31U | 0.12 |
| A25C C31G | 0.06 |
| A25C C31A | 0.09 |
| A24U G36U | 0.05 |
| A24U G36A | 0.22 |
| A24U G36C | 0.11 |
| C23U A39U | 0.89 |
| C23U A39C | 0.29 |
| C23U A39G | 0.1 |
| A24U G29A | 1.72 |
| A24U G29U | 1.84 |
| A24U G29C | 0.58 |
| C23U G35U | 0.16 |
| C23U G35C | 0.1 |
| C23U G35A | 0.19 |
| A24C C42U | 0.13 |
| A24C C42A | 0.15 |
| A24C C42G | 0.05 |
| A24G A26U | 1.28 |

| Variant | self-cleavage |
| --- | --- |
| A24G A26G | 0.5 |
| A24G A26C | 1.06 |
| A24G C46U | 0.93 |
| A24G C46G | 0.83 |
| A24G C46A | 1.75 |
| A24C A25U | 1.01 |
| A24C A25G | 0.89 |
| A24C A25C | 0.73 |
| A24G A39C | 0.27 |
| A24G A39U | 1.31 |
| A24G A39G | 0.07 |
| A24U U43G | 0.03 |
| A24U U43A | 0.3 |
| A24U U43C | 0.18 |
| A25G | 0.73 |
| A25C | 0.66 |
| C23U C31U | 0.47 |
| C23U C31G | 0.16 |
| C23U C31A | 0.24 |
| C23U G40U | 0.11 |
| C23U G40A | 0.12 |
| C23U G40C | 0.12 |
| A24C U34G | 0.05 |
